Experimental data published in publication PMC10156769, “The novel anti-cancer fluoropyrimidine NUC-3373 is a potent inhibitor of thymidylate synthase and an effective DNA-damaging agent” (Cancer Chemotherapy and Pharmacology, 2023).

What was measured:
purified protein = substrate: O=c1ccn([C@H]2C[C@H](O)[C@@H](COP(=O)(O)OP(=O)(O)OP(=O)(O)O)O2)c(=O)[nH]1; assay: purified protein; conditions: Mg2+ ([…] MgCl2 in the assay buffer)
[1] = substrate: O=c1[nH]c(=O)n([C@H]2C[C@H](O)[C@@H](COP(=O)(O)OP(=O)(O)OP(=O)(O)O)O2)cc1F; assay: EnzChek pyrophosphate coupled assay, Michaelis-Menten substrate kinetics (KM); type: biochemical, Homo sapiens; conditions: Mg2+ ([…] MgCl2 in the assay buffer)

B1: dUTPase (Deoxyuridine triphosphate nucleotidohydrolase) (Homo sapiens) (protein)
chain: ASTVGAAGWKGELPKAGGSPAPGPETPAISPSKRARPAEVGGMQLRFARLSEHATAPTRGSARAAGYDLYSAYDYTIPPMEKAVVKTDIQIALPSGCYGRVAPRSGLAAKHFIDVGAGVIDEDYRGNVGVVLFNFGKEKFEVKKGDRIAQLICERIFYPEIEEVQALDDTERGSGGFGSTGKN
Km (purified protein): 3.2 ± 1.8 µM
Km [1]: 19.1 ± 6.7 µM
